The text below walks through data of paper PMC3050627.

In the data set the target is His-MAFB (UniProt Q9Y5Q3 1-323). Nature of the data set: EMSA. In general terms: A gel shift assay detects complexes by their altered migration in electrophoresis.
Sequence of His-MAFB (Q9Y5Q3 whole entry): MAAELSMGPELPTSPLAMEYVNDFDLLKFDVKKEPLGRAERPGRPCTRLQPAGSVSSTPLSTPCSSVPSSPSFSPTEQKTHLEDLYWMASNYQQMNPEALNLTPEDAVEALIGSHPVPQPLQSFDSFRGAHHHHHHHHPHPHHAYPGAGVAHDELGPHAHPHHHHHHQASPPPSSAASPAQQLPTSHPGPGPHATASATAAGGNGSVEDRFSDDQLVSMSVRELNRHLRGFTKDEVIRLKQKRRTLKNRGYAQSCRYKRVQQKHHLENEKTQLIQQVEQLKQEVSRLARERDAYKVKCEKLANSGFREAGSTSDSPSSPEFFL

B1: MARE (dsDNA)
DNA 1: CATTTCTGCTGACTCAGCAACTTTA
DNA 2: TAAAGTTGCTGAGTCAGCAGAAATG
B1: the binding result is “binds”.

B2: P31 (PRDIII-PRDI) (dsDNA)
DNA 1: GAAAACTGAAAGGGAGAAGTGAAAGTG
DNA 2: CACTTTCACTTCTCCCTTTCAGTTTTC
Turning to B2, the binding result is recorded as “no binding”.
